Experimental data as given in the Human Domainome abundance scans (Beltran et al. 2025).
± gives the uncertainty stated by the source.

B1: Formin-binding protein 4, residues 593 to 636; numbered along this chain, Q8N3X1 (parent)
chain: EINATPKGWSCHWDRDHRRYFYVNEQSGESQWEFPDGEEEEEES

Variants of: B1
Experiment: abundance fitness (aPCA) (normalised: wild type 0, dead -1); higher = more abundant; growth selection in yeast, the domain comes from the species named
Details: Homo sapiens

Row | Variant | abundance fitness
1 | EINATPKGWSCHWDRDHRRYFYVNEQSGESQWEFPDGETEEEES | 0.11 ± 0.084
2 | EINATPKGWSCHWDRDHRRYFYVNEQSGESQWEFPDGECEEEES | 0.048 ± 0.1
3 | EINATPKGWSCHWDRDHRRYFYVNEQSGESQWEFPDGEMEEEES | -0.109 ± 0.083
4 | EINATPKGWSCHWDRDHRRYFYVNEQSGESQWEFPDGENEEEES | 0.052 ± 0.096
5 | EINATPKGWSCHWDRDHRRYFYVNEQSGESQWEFPDGEREEEES | -0.068 ± 0.061
6 | EINATPKGWSCHWDRDHRRYFYVNEQSGESQEEFPDGEEEEEES | -0.273 ± 0.086
7 | EINATPKGWSCHWDRDHRRYFIVNEQSGESQWEFPDGEEEEEES | -0.515 ± 0.17
8 | EINATPKGWSCHWDRDHRRYFSVNEQSGESQWEFPDGEEEEEES | -0.322 ± 0.087
9 | EINATPKGWSCHWDRDHRRYFDVNEQSGESQWEFPDGEEEEEES | -0.552 ± 0.17
10 | EINATPKGWSCHWDRDHRRYFNVNEQSGESQWEFPDGEEEEEES | -0.092 ± 0.29
11 | EINATPKGWSCHWGRDHRRYFYVNEQSGESQWEFPDGEEEEEES | -0.963 ± 0.068
12 | EINATPKGWSCHWDRDHRRYFYVNEQSGGSQWEFPDGEEEEEES | -0.253 ± 0.07
13 | EINATPKGWSCHWDRDHRRYFYVNEQSGASQWEFPDGEEEEEES | -0.052 ± 0.081
14 | EINATPKGWSCHWDRDHRRYFYVNEQSGMSQWEFPDGEEEEEES | -0.058 ± 0.096
15 | EINATPKGWSCHWDRDHRRYFYVNEQSGPSQWEFPDGEEEEEES | -0.883 ± 0.12
16 | EINATPKGWSCHWDRDHRRYFYVNHQSGESQWEFPDGEEEEEES | -0.251 ± 0.12
17 | EINATPKGWSCHWDRDHRRYFYVNCQSGESQWEFPDGEEEEEES | -0.355 ± 0.29
18 | EINATPKGWSCHWDRDHRRYFYVNRQSGESQWEFPDGEEEEEES | -0.175 ± 0.067
19 | EINATPKGWSVHWDRDHRRYFYVNEQSGESQWEFPDGEEEEEES | -0.257 ± 0.2
20 | EINATPKGWSCHWDRDHRRYFYVREQSGESQWEFPDGEEEEEES | -0.359 ± 0.058

Row | Variant | abundance fitness
21 | EINATPKGWSCHWDRDHRRYFYVEEQSGESQWEFPDGEEEEEES | -0.335 ± 0.082
22 | EINATPKGWSCHWDRDHRRYFYVWEQSGESQWEFPDGEEEEEES | -0.726 ± 0.082
23 | EINATPKGWSCHWDRDHRRYFYVLEQSGESQWEFPDGEEEEEES | -1 ± 0.082
24 | EINATPKGWSCHWDRDHRRYFYVIEQSGESQWEFPDGEEEEEES | -1.14 ± 0.15
25 | EINATPKGWSCHEDRDHRRYFYVNEQSGESQWEFPDGEEEEEES | -0.456 ± 0.084
26 | EINATPKGWSCHMDRDHRRYFYVNEQSGESQWEFPDGEEEEEES | -0.542 ± 0.096
27 | EINATPKGWSCHWDRDHRRVFYVNEQSGESQWEFPDGEEEEEES | -0.206 ± 0.068
28 | EINATPKGWSCHWDRDHRRQFYVNEQSGESQWEFPDGEEEEEES | -0.285 ± 0.16
29 | EINKTPKGWSCHWDRDHRRYFYVNEQSGESQWEFPDGEEEEEES | -0.008 ± 0.17
30 | EINTTPKGWSCHWDRDHRRYFYVNEQSGESQWEFPDGEEEEEES | -0.032 ± 0.16
31 | EINRTPKGWSCHWDRDHRRYFYVNEQSGESQWEFPDGEEEEEES | -0.01 ± 0.07
32 | EINATPKGWSCHWDRDHRRYFYVNEQEGESQWEFPDGEEEEEES | -0.427 ± 0.091
33 | EINATPKGWSCHWDRDHRRYFYVNEQWGESQWEFPDGEEEEEES | -1.52 ± 0.45
34 | EINATPKGWSCHWDRDHRRYFYVNEQCGESQWEFPDGEEEEEES | -0.681 ± 0.28
35 | EINATPKGWSCHWDRDHRRYFYVNEQKGESQWEFPDGEEEEEES | -0.485 ± 0.18
36 | EINATPKGWSCHWDRDHRRYFYVNEQGGESQWEFPDGEEEEEES | -0.458 ± 0.11
37 | EINATPKGWSCHWDRDHRRYFYVNEQSGERQWEFPDGEEEEEES | 0.27 ± 0.081
38 | EINATPKGWSCHWDRDHRRYFYVNEQSGEKQWEFPDGEEEEEES | 0.274 ± 0.16
39 | EINATPKGWSCHWDRDHRRYFYVNEQSGELQWEFPDGEEEEEES | -0.03 ± 0.1
40 | EINATPKGWSCHWDRDHRRYFYVNEQSGEAQWEFPDGEEEEEES | 0.014 ± 0.071

Row | Variant | abundance fitness
41 | EINATPKGWSCHWDRDHRRYFYVNEQSGESQWEFPDGEEEEEAS | 0.068 ± 0.07
42 | EINATPKGWSCHWDRDHRRYFYVNEQSGESQWEFPDGEEEEEQS | -0.433 ± 0.3
43 | EINATPKGWSCHWDRDHRRYFYVNEQSGESQWEFPDGEEEEEDS | -0.02 ± 0.13
44 | EIDATPKGWSCHWDRDHRRYFYVNEQSGESQWEFPDGEEEEEES | 0.157 ± 0.34
45 | EIEATPKGWSCHWDRDHRRYFYVNEQSGESQWEFPDGEEEEEES | 0.185 ± 0.15
46 | EINAFPKGWSCHWDRDHRRYFYVNEQSGESQWEFPDGEEEEEES | -0.306 ± 0.17
47 | EINACPKGWSCHWDRDHRRYFYVNEQSGESQWEFPDGEEEEEES | 0.052 ± 0.15
48 | EINAWPKGWSCHWDRDHRRYFYVNEQSGESQWEFPDGEEEEEES | -0.19 ± 0.15
49 | EINATPKGWSCHWDRDHRRYFYVNEQSGESQWSFPDGEEEEEES | -0.184 ± 0.082
50 | EINATPKGWSCHWDRDHRRYFYVNEQSGESQWFFPDGEEEEEES | -0.497 ± 0.081
51 | EINATPKGWSCHWDRDHRRYFYVNEQSGESQWCFPDGEEEEEES | -0.355 ± 0.25
52 | EINATPKGWSCHWDRDHRRYFYVNEQSGESQWGFPDGEEEEEES | -0.168 ± 0.067
53 | EINATPKGWSCHWDRDHRRYFYVNEQSGESQWAFPDGEEEEEES | -0.064 ± 0.062
54 | EINATPKGWSCHWDRDHRRYFYVNEQSGESNWEFPDGEEEEEES | -0.742 ± 0.33
55 | EINATPKGWSCHWDRDHRRYFYVNEQSGESCWEFPDGEEEEEES | -0.129 ± 0.093
56 | EINATPKGWSCHWDRDHRRYFYVNEQSGESVWEFPDGEEEEEES | -0.153 ± 0.061
57 | EINATPKGWSCHWDRDHRRYFYVNEQSGESKWEFPDGEEEEEES | -0.32 ± 0.11
58 | EINATPKGWSCHWDRDHRRYFYVNEQSGESLWEFPDGEEEEEES | -0.383 ± 0.07
